Results published in PMC7550718.

Experiments:
SHP1 R30Q (human) = SHP1 R30Q (human) (UniProt P29350)
SHP1 R136Q (human) = SHP1 R136Q (human) (UniProt P29350)
[1] = biological target: Full length wild type SHP1 (human) (UniProt P29350)
SHP1 R30Q R136Q (human) = SHP1 R30Q R136Q (human) (UniProt P29350)

Substance “SIRPα di-phosphopeptide corresponding to residues 427 to 460 of human SIRPα (H2N-ITpYADLNLP-PEG8-HTEpYASIQTSK-NH2)” has an increase of phosphatase activity on DiFMUP with 0 to 3,000 nM SIRPα peptide (fold at 3 μM) (SHP1 R30Q (human)) of 1.8 fold, an increase of phosphatase activity on DiFMUP with 0 to 3,000 nM SIRPα peptide (fold at 3 μM) (SHP1 R136Q (human)) of 3.5 fold and an increase of SHP1 phosphatase activity on DiFMUP with 0 to 3,000 nM SIRPα peptide (fold) [1] of 35 fold. The increase of phosphatase activity on DiFMUP with 0 to 3,000 nM SIRPα peptide (fold at 3 μM) (SHP1 R30Q R136Q (human)) was 1.1 fold.
